Values quoted from earlier work in patent publication US9856460B2, “Nucleic acids encoding synthetic scaffolds and host cells genetically modified with the nucleic acids” (The Regents of the University of California, priority 2008, dated 2018).

Molecular target: T1, WASP GBD (Rattus norvegicus, UniProt O08816)
T1 construct: 196-274
Conditions: partner WASP GBD; measured in trans

T1 sequence (O08816 196-274): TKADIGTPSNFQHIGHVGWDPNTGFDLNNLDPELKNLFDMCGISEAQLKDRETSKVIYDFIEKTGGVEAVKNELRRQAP

Substance: GBD interaction ligand LVGALMHVMQKRSRAIHSSDEGEDQAGDEDED, SEQ ID NO: 30, partner WASP GBD [GBD lig.]
- Kd: 1000 nM
